{
  "source": "patent US20140079691A1",
  "binders": {"B1": {"name": "APE1661 (antibody, human IgG1, kappa, V domains shown)", "VH": "EVQLVESGGGLVQPGGSLILSCAASGFTFTTYNMNWVRQAPGKGLEWVCVISTGGSNTYYADSVKGRFTCSRDNSKNTLYLQMNSLRAEDTAVYYCARDGGYSSSTLYAMDAWGAGTTVTVSS", "VL": "DVVLTQSPLSLAVLLGQPASISCRASKNIYNALAWYQQRPGQSPRLLIYNTDRLHTGVPDRFSGSGSGTDFTLKISRVEAEDVGVYFCQHYFDYPRTFGGGTKLEIKR"}, "B2": {"name": "APE1662 (antibody, human IgG1, kappa, V domains shown)", "VH": "EVQLVESGGGLVQPGGSLILSCAASGFTFSNHWMNWVRQAPGKGLEWVCAAINEDGSEKYYVGSVKVRFTCSRDNSKNTLYLQMNSLRAEDTAVYYCARDYYDILTDYYIHYWYFDLWGAGTTVTVSS", "VL": "DVVLTQSPLSLAVLLGQPASISCRASQSVSSSYLAWYQQRPGQSPRLLIYGASSRATGVPDRFSGSGSGTDFTLKISRVEAEDVGVYFCQQYGSSPLTFGGGTKLEIKR"}, "B3": {"name": "APE1775 (antibody, human IgG1, kappa, V domains shown)", "VH": "EVQLVESGGGLVQPGGSLILSCAASGFTFSSYAMTWVRQAPGKGLEWVCAISGSGSTYYADSVKGRFTCSRDNSKNTLYLQMNSLRAEDTAVYYCARRGLRYNYFDYWGAGTTVTVSS", "VL": "DVVLTQSPLSLAVLLGQPASISCRASQSVSSSYLAWYQQRPGQSPRLLIYGASSRATGVPDRFSGSGSGTDFTLKISRVEAEDVGVYFCQQYGRSLEYTFGGGTKLEIKR"}},
  "test_in_all_cases": "method not stated in Example 7",
  "key": {"β-NGF": {"biological_target": "β-NGF", "sequence (P01138 122-241)": "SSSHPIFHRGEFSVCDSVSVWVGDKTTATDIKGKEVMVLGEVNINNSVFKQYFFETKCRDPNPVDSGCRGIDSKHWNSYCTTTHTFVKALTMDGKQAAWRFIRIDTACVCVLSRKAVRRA"}, "IL-17A": {"biological_target": "IL-17A", "sequence (Q16552 24-155)": "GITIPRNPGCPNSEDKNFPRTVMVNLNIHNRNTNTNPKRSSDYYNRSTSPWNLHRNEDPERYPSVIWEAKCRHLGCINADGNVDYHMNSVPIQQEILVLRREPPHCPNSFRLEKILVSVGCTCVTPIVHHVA"}, "[1]": {"biological_target": "C345C subunit of complement protein C5", "sequence (P01031 1532-1676)": "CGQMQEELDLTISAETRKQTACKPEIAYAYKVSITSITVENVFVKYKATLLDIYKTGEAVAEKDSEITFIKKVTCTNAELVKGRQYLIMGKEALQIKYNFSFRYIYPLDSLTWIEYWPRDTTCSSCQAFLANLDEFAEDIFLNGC"}},
  "data": [
    {"binder": "B1", "values": [
      {"measurement": "Kd", "setting": "β-NGF", "value": 12, "unit": "nM"},
      {"measurement": "fold loss in β-NGF binding affinity (against the parental antibody, APE579 in Table 3)", "setting": "β-NGF", "value": 2, "unit": "fold"}
    ]},
    {"binder": "B2", "values": [
      {"measurement": "Kd", "setting": "IL-17A", "value": 0.21, "unit": "nM"},
      {"measurement": "fold improvement in antigen binding affinity (against the parental antibody, APE508 in Table 3)", "setting": "IL-17A", "value": 1.6, "unit": "fold"}
    ]},
    {"binder": "B3", "values": [
      {"measurement": "Kd", "setting": "[1]", "value": 5, "unit": "nM"}
    ]}
  ]
}
